According to the nanobody polyreactivity screen of Harvey et al. (2022):

Test: yeast display, Sf9 membrane polyspecificity reagent, FACS + sequencing; frameworks hold sequencing errors
How it was run: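 Nanobodies came from a synthetic yeast display library in Saccharomyces cerevisiae BJ5465, induced with galactose for 36–48 hours and stained for 1 hour at 4 °C with 10% biotinylated, detergent-solubilized Sf9 membrane reagent. Cells were enriched on streptavidin microbeads and then FACS-sorted, with low and high (top ~1%) gates set on anti-HA fluorescence for expression and streptavidin fluorescence for reagent binding. Each polyreactivity label reflects the gate a clone came from. Genes were amplified by colony PCR, sequenced by MiSeq 2 × 250 and filtered by CDR length.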

Sequence	polyreactivity (PSR sort gate)
QVQLVESGGGLVQAGGSLRLSCAASGFIFGYYAMGWYRQAPGKERELVAAISGDAGRTYYADSVKGRFTISRDNAKNTVYLQMNSLKAEDTAVYYCAAADTYKMDYWGQGTQVTVSS	low polyreactivity
QVQLVESGGGLVQAGGSLRLSCAASGFIFGYYAMGWYRQAPGKERELVAAISGDAGRTYYADSVKGRFTISRDNAKNTVYLQMNSLKPEDTAVYYCAAADTYKMDYWGQGTQVTVSS	low polyreactivity
QVQLVESGGGLVQAGGSLRLSCAASGFIFGYYAMGWYRQAPGKERELVAAISWSGVSTYYADSVKGRFTISSDNAKNTVDLQMNSLKPEDTAVYYCAVGYVLTGVFQARFDYWGQGTQVTVSS	high polyreactivity
QVQLVESGGGLVQAGGSLRLSCAASGFIFGYYAMGWYRQAPRKERELVAAISQSTGSTYYADSVKGRFSNSRDNAKNTVYLQMNSLKPEDTAVYYCNAEGPEVTTWGYVYWDWGYGYWGQGTQVTVSS	low polyreactivity
QVQLVESGGGLVQAGGSLRLSCAASGFIFGYYTMGWYRQAPGKERELVASISSRGGSTFYADSVKGRFTISRDNAKNTVYLQMNSLKPEDTAVYYCAVRRGVYYYPYYYWGQGTQVTVSS	high polyreactivity
QVQLVESGGGLVQAGGSLRLSCAASGFIFGYYTMGWYRQAPGKEREVVAAISSSGGRTYYADSVKGRFTISRDNAKNTVYLQMNSLKPEDTAVYYCAKQNRGSEPAYDYWGQGTQVTVSS	low polyreactivity
QVQLVESGGGLVQAGGSLRLSCAASGFIFGYYVMGWSRQAPGKERELVAAISGSGGRTYYADSVKGRFTISRDNAKNTVYLQMNSLKPEDTAVYYCNAVAFYRDYNYWGQGTQVTVSS	high polyreactivity
QVQLVESGGGLVQAGGSLRLSCAASGFIFHLYAMGWYRQAPGKERDLVAAIRISDGSTYYADSVKGRFTISRDNAKNSVYLQMNRLKPEDTAVYYCNVVYRYGGYNYWGQGTQVTVSS	high polyreactivity
QVQLVESGGGLVQAGGSLRLSCAASGFIFHSYDMGWYRPAPRKERELVASISRGGGSTYYADSVKGRFTISRDNAMNTVYLQMNSLKPEDTAVYDCSARVYSLGYGGDYWGQGTQVTVSS	high polyreactivity
QVQLVESGGGLVQAGGSLRLSCAASGFIFHVYAMGWYRQAPGKEREFVAGISWRGGRTYYADSVKGRFTISRDNAKNTVYLLMNSLKPEDTAVYYCAALGLNAGGKFDYWGQGTQVTVSS	high polyreactivity
QVQLVESGGGLVQAGGSLRLSCAASGFIFHVYAMGWYRQAPGKERELVARITSSGGNTFYADSVKGRFTISRDNAKNTVYLQMNSLKPEDTAVYYCAKSSIYTDYDYWGQGSQVTVSS	low polyreactivity
QVQLVESGGGLVQAGGSLRLSCAASGFIFIEYTMGWYRQAPGKERQLVAAISSGGNTYYADSVKGRFTISRDNAKNTVYLQMNSLKPEDTAVYYCNADNYAFYTQRPLDGSATYDYWGQGTQVTVSS	low polyreactivity
QVQLVESGGGLVQAGGSLRLSCAASGFIFIKYAMRCYRQAPGKERELVAAISFRGGRTNYADSVKGRFTISRDNAKNTVYLQMNSLKPEDTAVYYCAAETRDYSEGYYWGQGTQVTVSS	high polyreactivity
QVQLVESGGGLVQAGGSLRLSCAASGFIFIPNTMGWYRQAPGKERELVASGSTYYADSVKGRFTISRDNAKNTVYLQLNSLKPEDTAVYYCAARYHRYSSEFDYWGQGTQVTVSS	low polyreactivity
QVQLVESGGGLVQAGGSLRLSCAASGFIFIQNDMGWYRQAPGKERAFFASISKDGGRTYYADSVKGRFTISRDNAKNTVYLQMNSLKPEDTAVYYCNTYPRGNWGNFVEQDYDYWGQGTQVTVSS	low polyreactivity
QVQLVESGGGLVQAGGSLRLSCAASGFIFISNAMGWYRQAPGKERELVARISDTDRTHYADSVKGRFTISRDNAKNTVYLQMNSLKPEDTAVYYCATDQSLLDKVYYDVQYDYWGQGTQVTVSS	low polyreactivity
QVQLVESGGGLVQAGGSLRLSCAASGFIFKGNAMGWSRQAPGKERELVAAISSRGGSTYYADSVKGRFTISRDNAKNTVYLQMNSLKPEDTAVYYCATRVYWRNDYWGQGTQVTVSS	high polyreactivity
QVQLVESGGGLVQAGGSLRLSCAASGFIFKINAMGWYRQAPGKERELVAAINWTGGNTYYADSVKGRFTISRDNAKNTVYLQMNSLKPEDTAVYYCAAEFDVGWTWDYYWGQGTQVTVSS	high polyreactivity
QVQLVESGGGLVQAGGSLRLSCAASGFIFKPNALGWYRQAPGKERELVAAITWGGDNTYYADSVKGRFTISRDNAKNTVYLQMNSLKPEDSAVYYCAAEWKFHSDASYIYDYWGQGTQVTVSS	high polyreactivity
QVQLVESGGGLVQAGGSLRLSCAASGFIFKSNAMGWDRQAPGKERELVAAISTSGGSTYYADSVKGRFTISRDNAKNTVYLQMNSLKPEDTAVYYCAKRPSRYYYRLDYWGQGTQVTVSS	high polyreactivity
QVQLVESGGGLVQAGGSLRLSCAASGFIFKSYAMGWYRPAPGKERELVAAISSGGTTNYADSVKGRFTISRDNANNTVYLQMNSLKPEDTAVYYCAAALHGHTFPFYYWGHGTQVTVSS	low polyreactivity
QVQLVESGGGLVQAGGSLRLSCAASGFIFKSYAMGWYRQAPGQERELVAAISRSGSSTYYADSVKGRFTISRDNAKNTVYLLMNSLKPEDTAVYYCAKKGYRFIHFGYDYWGQGTQVTVSS	high polyreactivity

Sequence	polyreactivity (PSR sort gate)
QVQLVESGGGLVQAGGSLRLSCAASGFIFKSYTMGWYRQAPGKERELVAAITWSGDSTYADSVKGRFTISRDNAKNTVYLQMNSLKPEDTAVYYCAKNYAYLYYSWGQGTQVTVSS	low polyreactivity
QVQLVESGGGLVQAGGSLRLSCAASGFIFKYNVMGWYRQAPGKERELVAAIRGSGRTYYADSVKGRFTISRDNAKNTVYLQMNSLKPEDTAVYYCGADIQAYASRVYAGFDYWGQGTQVTVSS	low polyreactivity
QVQLVESGGGLVQAGGSLRLSCAASGFIFKYYAMGWYRHAPGKERELVAAISRRGGSTFYADSVKGRFTISRDNAKNTVYLQMNSLKPEDTAVYYCAKYPQTLPIDVWTWIHDYWGQGTQVTVSS	high polyreactivity
QVQLVESGGGLVQAGGSLRLSCAASGFIFLFNAMGWYRQAPGKERELVATNSSGGSTYYADSVKGRFTISLDNAKNTVYLQMTSLKPEDTAVYYCNAGPARTVYAQSSYVLYDYWGQGTQVTVSS	low polyreactivity
QVQLVESGGGLVQAGGSLRLSCAASGFIFLGNAMGWYRPAPGKERDLVAAISSGGSTYADSVKGRFTISRDNAKYTVYLQMNSLKPEDTAVYYCAVDRAFRAQNYHEYDYWGQGTQVTVSS	low polyreactivity
QVQLVESGGGLVQAGGSLRLSCAASGFIFLHYAMGWYRKAPGKERELVAGIDSSVDSTFYADSVKGRFTISRDNAKNTVYLQMNSLKPEDTAVYYCAKDPDLDYYLYYYWGQGTQVTVSS	low polyreactivity
QVQLVESGGGLVQAGGSLRLSCAASGFIFLLYAMGWYRQAPGKERELVAAIDTDTSTNYADSVKGRFTISRDNAKNTVYLQMNSLKPEDTAVYYCAREEPGVSLGVDYDYWGQGTQVTVSS	low polyreactivity
QVQLVESGGGLVQAGGSLRLSCAASGFIFLPYVMGWYRQAPGKERELVAAISGGGGITYYADSVKGRFTISRDNAKNTVYLQMNSLKPEDTAVYYCAADDLHWLNSKRYSGRDYWGQGTQVTVSS	low polyreactivity
QVQLVESGGGLVQAGGSLRLSCAASGFIFLWNAMAWYRQAPGKELDLVAAINRGTSTNYADSVKGRFTISRDNAKNTVYLQMNSLKPEDTAVYYCAVSVLPWQMYSESYAEYDYWGQGTQVTVSS	low polyreactivity
QVQLVESGGGLVQAGGSLRLSCAASGFIFLYAMGWYRQAPGKERELVAAISWSDTSTYYADSVKGRFTISRDNAKNTVYLQMNSLKPEDTAVYYCNAETWNYGDYDYWGQGTQVTVSS	high polyreactivity
QVQLVESGGGLVQAGGSLRLSCAASGFIFLYYAMGWYRQAPGKERELVAAITTRGGRTYYADSVKGRFTISRDNAKNTVYLQMNSLKPEDTAVYYCAVQVSWSYYRYGYWGQGTQVTVSS	low polyreactivity
QVQLVESGGGLVQAGGSLRLSCAASGFIFNAYAMGWYRQAPGKERELVAAITFRTTSTYYADSVKGRFTISRDNAKNTVYLQMNSLKPEDTAVYYCAALWIYSGWRYDYWGQGTQVTVSS	high polyreactivity
QVQLVESGGGLVQAGGSLRLSCAASGFIFNINTMGWYRQAPGKERELVAAITLNGDGTYYADSVKGRFTISRDNAKNTVDIQMNSLNPADTAVDYCNAATWYYYYVSRETYYFDVDYWGQGTQVTVSS	low polyreactivity
QVQLVESGGGLVQAGGSLRLSCAASGFIFNLYAMGWYRQAPGKERELVATITNRGGITHYADSVKGRFTISRDNAKNTVYLQMNSLKPEDSAVYYCAVKVYRRSGGYEYWGQGTQVTVSS	low polyreactivity
QVQLVESGGGLVQAGGSLRLSCAASGFIFNNYAMGWSRQAPGKERELVAAITWSGGGTYYADSVKGRFTISRDNAKNTVYLQMNSLKPEDSAVYYCAVYYPAYLEEYWGQGTQVTVSS	high polyreactivity
QVQLVESGGGLVQAGGSLRLSCAASGFIFNNYGMGWSRQAPGKERELVATISRGASTNYADSVKGRFTISRDNAKNTVYLQMNSLKPEDTAVYYCAKDYGDWGQGTQVTVSS	low polyreactivity
QVQLVESGGGLVQAGGSLRLSCAASGFIFNRNAMGWYRQAPGKERELVAAITWSASRTYYADSVKGRFTISRDNAKNTVYLQMNSLKPEDTAVSYCAARRYRGYDYWGQGTQVTVSS	high polyreactivity
QVQLVESGGGLVQAGGSLRLSCAASGFIFNSYAMGWYRPAPGKERELVAVISWSGGTTYYADSVKGRFTISRDNAKNTVFLQMNSLKPEDTAVYYCAASSYRSQYGYWGQGTQVTVSS	high polyreactivity
QVQLVESGGGLVQAGGSLRLSCAASGFIFNSYGMGWYRQAPGKERELVAAITKSGGSTYYADSVKGRFTISRDNAKNTVYLQMNSLKPEDTAVYYCAARAYRYSVYRGDYWGQGTQVTVSS	high polyreactivity
QVQLVESGGGLVQAGGSLRLSCAASGFIFNWNTMGWYRQAPGKERELVATMTGSGGSTYADSVKGRFTISRDNAKNTVYLQMNSLKPEDTAVYYCAATRRSFHKYDYWGQGTQVTVSS	low polyreactivity
QVQLVESGGGLVQAGGSLRLSCAASGFIFNYNAMGWYRQAPGKERELVAAISGTGVRTYYADSVKGRFTISRDNAKNTVYLQMNSLKPEDTAVYYCNAYYGYIPVSGYRNDYWGQGTQVTVSS	low polyreactivity
